# Test results published in patent US20250333507A1 (SHANGHAI CELGEN BIO PHARMACEUTICAL, published 2025).
# T1: mouse IL2R on CTLL-2 cells (mouse, UniProt P01590 22-268)
# T1 sequence (looked up): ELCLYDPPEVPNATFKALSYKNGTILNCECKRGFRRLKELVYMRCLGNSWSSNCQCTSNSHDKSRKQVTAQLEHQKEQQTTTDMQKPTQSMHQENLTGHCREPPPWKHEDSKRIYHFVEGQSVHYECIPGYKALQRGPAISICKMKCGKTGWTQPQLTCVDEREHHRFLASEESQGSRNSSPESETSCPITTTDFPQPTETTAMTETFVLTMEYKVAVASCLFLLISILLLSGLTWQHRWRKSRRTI
# T2: recombinant IL2Rβ subunit (Sinobio) (UniProt P14784 27-239)
# T2 construct: also called IL2β subunit
# T2 sequence (looked up): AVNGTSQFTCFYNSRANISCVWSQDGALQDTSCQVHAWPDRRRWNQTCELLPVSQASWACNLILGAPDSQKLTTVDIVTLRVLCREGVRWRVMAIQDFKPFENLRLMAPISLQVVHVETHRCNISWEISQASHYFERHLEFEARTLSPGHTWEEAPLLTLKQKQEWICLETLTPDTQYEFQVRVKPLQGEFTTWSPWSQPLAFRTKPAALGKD
# T3: IL2Rαγ (dimer) on 293F cells (human, UniProt P01589 22-272; P31785 23-369)
# T3 construct: whole, on cells
# T3 sequence (looked up) 1: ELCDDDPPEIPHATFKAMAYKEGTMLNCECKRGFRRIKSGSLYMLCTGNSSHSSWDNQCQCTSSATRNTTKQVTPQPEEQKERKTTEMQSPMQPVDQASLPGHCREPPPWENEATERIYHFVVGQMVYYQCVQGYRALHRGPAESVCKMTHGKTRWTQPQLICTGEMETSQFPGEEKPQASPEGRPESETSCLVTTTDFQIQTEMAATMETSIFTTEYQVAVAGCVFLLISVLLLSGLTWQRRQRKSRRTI
# T3 sequence (looked up) 2: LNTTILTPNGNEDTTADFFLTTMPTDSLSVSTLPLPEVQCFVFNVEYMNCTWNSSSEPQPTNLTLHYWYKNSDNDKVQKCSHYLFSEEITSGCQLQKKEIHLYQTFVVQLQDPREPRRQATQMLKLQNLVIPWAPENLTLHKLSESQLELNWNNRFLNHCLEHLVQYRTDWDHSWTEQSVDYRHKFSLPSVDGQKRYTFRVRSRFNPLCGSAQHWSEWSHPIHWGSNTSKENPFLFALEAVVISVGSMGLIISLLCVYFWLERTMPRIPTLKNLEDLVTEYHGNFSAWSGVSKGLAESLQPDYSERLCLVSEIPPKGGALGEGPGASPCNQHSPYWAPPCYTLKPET
# T4: mouse TIGIT (mouse, UniProt P86176 29-148, limits assumed)
# T4 sequence (looked up): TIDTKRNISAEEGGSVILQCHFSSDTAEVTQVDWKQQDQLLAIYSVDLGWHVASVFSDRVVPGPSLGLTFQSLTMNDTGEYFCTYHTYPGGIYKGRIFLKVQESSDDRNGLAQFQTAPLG
# T5: recombinant human TIGIT (Human TIGIT His, Sino Biological, 10917-H08H) (human, UniProt Q495A1 22-138)
# T5 construct: range 1-138; Bought reagent; also called recombinant human TIGIT antigen; recombinant human TIGITE-HIS; not shown: C-terminal histidine tag
# T5 sequence (looked up): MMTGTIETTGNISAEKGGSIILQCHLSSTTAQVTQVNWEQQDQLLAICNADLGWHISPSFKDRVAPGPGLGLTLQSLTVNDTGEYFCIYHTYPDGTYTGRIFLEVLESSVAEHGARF
# T6: full-length human TIGIT on the cell membrane (human, UniProt Q495A1 22-244)
# T6 construct: whole, on cells; the cell is named under assay or readout; also called CHO-K-TIGIT; CHO-TIGIT
# T6 sequence (looked up): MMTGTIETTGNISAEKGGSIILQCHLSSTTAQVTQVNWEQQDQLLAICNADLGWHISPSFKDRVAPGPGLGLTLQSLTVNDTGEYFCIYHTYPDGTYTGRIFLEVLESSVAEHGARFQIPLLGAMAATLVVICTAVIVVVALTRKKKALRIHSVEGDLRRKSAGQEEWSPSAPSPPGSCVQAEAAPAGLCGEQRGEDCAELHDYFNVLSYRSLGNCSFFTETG
# B1: KD5201E, HC(DANG)-IL2mut-1/LC(ART-Ig) anti-TIGIT antibody-IL2 fusion protein (other)
# heavy 1: EVQVVESGGGLVKPGGSLRLSCAASGFTFSTYAMSWVRQAPGKGLEWVAEISSGGSHTFYADTVKGRFTISRDNAKNTLYLQMNSLRAEDTAVYYCARKTLDYYALDYWGQGTTVTVSSASTKGPSVFPLAPSSKSTSGGTAALGCLVKDYFPEPVTVSWNSGALTSGVHTFPAVLQSSGLYSLSSVVTVPSSSLGTQTYICNVNHKPSNTKVDKKVEPKSCDKTHTCPPCPAPELLGGPSVFLFPPKPKDTLMISRTPEVTCVVVAVSHEDPEVKFNWYVDGVEVHNAKTKPREEQYGSTYRVVSVLTVLHQDWLNGKEYKCKVSNKALPAPIEKTISKAKGQPREPQVYTLPPSRKEMTKNQVSLTCLVKGFYPSDIAVEWESNGQPENNYKTTPPVLDSDGSFFLYSKLTVDKSRWQQGNVFSCSVMHEALHNRYTQKSLSLSPGGGGGSGGGGSGGGGSAPTSSSTKKTQLQLEHLLLDLQMILNGINNYKNPKLTRMLTAKFYMPKKATELKHLQCLEEELKPLEEVLNLAQSKNFHFDPRDVVSNINVFVLELKGSETTFMCEYADETATIVEFLNRWITFCQSIISTLT
# heavy 2: EVQVVESGGGLVKPGGSLRLSCAASGFTFSTYAMSWVRQAPGKGLEWVAEISSGGSHTFYADTVKGRFTISRDNAKNTLYLQMNSLRAEDTAVYYCARKTLDYYALDYWGQGTTVTVSSASTKGPSVFPLAPSSKSTSGGTAALGCLVKDYFPEPVTVSWNSGALTSGVHTFPAVLQSSGLYSLSSVVTVPSSSLGTQTYICNVNHKPSNTKVDKKVEPKSCDKTHTCPPCPAPELLGGPSVFLFPPKPKDTLMISRTPEVTCVVVAVSHEDPEVKFNWYVDGVEVHNAKTKPREEQYGSTYRVVSVLTVLHQDWLNGKEYKCKVSNKALPAPIEKTISKAKGQPREPQVYTLPPSREEMTKNQVSLTCLVKGFYPSDIAVEWESNGQPENNYKTTPPVLDSDGSFFLYSKLTVDKSRWQQGNVFSCSVMHEALHNHYTQESLSLSPG
# light: DVQITQSPSYLSASVGDRVTINCRASKSISKYLAWYQQKPGKAPKLLIYSGSRLQSGIPSRFSGSGYGTDFTLTISSLQPEDFATYYCQQHNEYPWTFGGGTKLEIKRTVAAPSVFIFPPSDEQLKSGTASVVCLLNNFYPREAKVQWKVDNALQSGNSQESVTEQDSKDSTYSLSSTLTLSKADYEKHKVYACEVTHQGLSSPVTKSFNRGEC
# notes: IL2mut-1 = F42A/L80F/R81D/L85V/I86V/I92F on the C-terminus of one heavy chain; Fc with D265A/N297G; also called HC1(DANG)-IL2mut/LC1(ART-Ig); HC1-IL2mut/LC1 (ART-Ig)
# B2: humanized anti-human TIGIT monoclonal antibody P03479 (7103-07 huVH2VL1) (antibody, V domains shown)
# VH: EVQVVESGGGLVKPGGSLRLSCAASGFTFSTYAMSWVRQAPGKGLEWVAEISSGGSHTFYADTVKGRFTISRDNAKNTLYLQMNSLRAEDTAVYYCARKTLDYYALDYWGQGTTVTVSS
# VL: DVQITQSPSYLSASVGDRVTINCRASKSISKYLAWYQQKPGKAPKLLIYSGSRLQSGIPSRFSGSGYGTDFTLTISSLQPEDFATYYCQQHNEYPWTFGGGTKLEIK
# notes: The constant region is described as IgG1 gamma in the embodiments; also called parent TIGIT antibody P03479
# What was measured:
# [1] = molecular target: full-length human TIGIT on the cell membrane (human) (UniProt Q495A1); assay: cell-based or functional assay
# [2] = molecular target: T1, mouse IL2R on CTLL-2 cells; assay: cell-based or functional assay
# [3] = molecular target: T2, recombinant IL2Rβ subunit (Sinobio); assay: BLI, recombinant IL2Rβ subunit
# [4] = molecular target: T3, IL2Rαγ (dimer) on 293F cells; assay: flow cytometry on 293F cells expressing IL2Rαγ
# From the text: First, human IL2Rα, IL2Rβ, and IL2Rγ expression plasmids (Sinobio) were co-transfected into 293F cells to transiently express the following IL2R complexes: IL2Rαβγ (trimer), IL2Rαγ (dimer), and IL2Rβγ (dimer). The expression of the respective IL2R subunits on the cell membrane was detected using antibodies against IL2Rα, IL2Rβ, and IL2Rγ.
# Then, the binding activity of KD5201F, KD5201E, and control protein-1 to the 293F cells expressing the two types of IL2R complexes (αγ and βγ) was detected using flow cytometry.
# mouse TIGIT = molecular target: T4, mouse TIGIT; assay: not described
# [5] = molecular target: T5, recombinant human TIGIT (Human TIGIT …); assay: ELISA, recombinant human TIGIT-His coated
# Method: The activity of TIGIT antibody-IL2 fusion protein binding TIGIT of the present disclosure in vitro was detected using ELISA. The ELIS was conducted as follows: coated with 50 μl of NaHCO₃(pH9.6) buffer containing […] recombinant human TIGITE-HIS overnight at 4° C.; on the next day, washed twice with PBS, followed by blocking with 3% BSA, 100 μL per well; incubated at 37° C. for 1.5h, and washed with PBST for 4 times. TIGIT antibody-IL2 fusion protein was diluted in a gradient with a binding solution (TBST containing 1% BSA), and added into the blocked and washed ELISA plate (50 μl per well), and incubated at 37° C. for 2 h. After washing with PBST for 4 times, a certain proportion of diluted anti-HFC (Jackson Immuno Research) labeled with alkaline phosphatase was added to each well and incubated at 37° C. for 1.5h. Finally, after washing with PBST for 4 times, PNPP color developing solution was added and incubated at 37° C. for 10-15 min, followed by reading on a microplate reader (wavelengths 405 nm and 490 nm). Human TIGIT monoclonal antibody P03479 was used as positive control.
# [6] = molecular target: T6, full-length human TIGIT on the cell …; assay: flow cytometry on CHO-K cells expressing human TIGIT
# Method: The flow cytometry method to study the binding of TIGIT antibodies to TIGIT protein on the cell membrane is briefly described as follows: Firstly, FACS buffer was prepared, which was a 1×PBS solution with 0.5% BSA. The required number of CHO-K-TIGIT cells, approximately 1×10⁵ to 5×10⁵ cells per sample, was taken and suspended in FACS buffer. […] The cells were incubated in a refrigerator at 4° C. for 30 minutes, washed once with FACS buffer, and then resuspended in FITC-conjugated anti-human IgG (Abcam: 6854) diluted in FACS buffer. The cells were incubated again in a refrigerator at 4° C. for 30 minutes. Finally, after washing the cells with FACS buffer, the cells were resuspended in 200 μL of FACS buffer for analysis, and subjected to detection.
# [7] = molecular target: T6, full-length human TIGIT on the cell …; assay: flow cytometry on Jurkat cells expressing human TIGIT
# Method: The binding activity of the anti-TIGIT antibody-IL2 fusion proteins to TIGIT on the cell membrane was tested using flow cytometry. A Jurkat cell line stably expressing human TIGIT was first established. The full-length human TIGIT gene (Sinobio) was amplified by PCR and cloned into the mammalian cell expression vector pcDNA3.1 (Invitrogen), using Not I and Xba I as cloning enzymes. The TIGIT expression plasmid was transfected into Jurkat cells to construct a stable Jurkat cell line expressing TIGIT (TIGIT-Jurkat).
# The flow cytometry study method for the binding of TIGIT antibody-IL2 fusion proteins to cell membrane-bound TIGIT is summarized as follows: FACS buffer (1×PBS+0.5% BSA solution) was prepared. The required number of TIGIT-Jurkat cells, about 1×10⁵ to 5×10⁵ cells per sample, was taken and incubated with TIGIT antibody-IL2 fusion protein diluted to a certain ratio in FACS buffer, approximately 100 μL, at 4° C. for 30 minutes. After washing the cells once with FACS buffer, they were resuspended in FITC-conjugated anti-human IgG (Abcam: 6854) diluted in FACS buffer and incubated at 4° C. for 30 minutes. Finally, after washing the cells with FACS buffer, they were resuspended in 200 μL of FACS buffer for analysis. The parent TIGIT antibody P03479 was used as a control.
# The results were consistent with those obtained by binding recombinant TIGIT in vitro (Example 6).
# [8] = molecular target: T5, recombinant human TIGIT (Human TIGIT …); assay: competition ELISA, TIGIT-His coated, competitor CD155-mFC
# Method: To determine whether human-mouse chimeric and humanized TIGIT monoclonal antibodies can inhibit the binding between CD155 and TIGIT, an in vitro ELISA assay was conducted. Tiragolumab was used as a positive control. […] The next day, after washing twice with PBS, the wells were blocked with 3% BSA, 100 μL per well, and incubated at 37° C. for 1.5 hours, followed by washing 4 times with PBST. Gradient diluted TIGIT monoclonal antibodies and CD155-mFC (6 μg/mL) (Human CD155 (Fc Tag): Sino Biological, 10109-H02H) were mixed in equal volumes and added to the blocked and washed microplate and incubated at 37° C. for 2 hours, followed by 4 washes with PBST. Subsequently, a diluted secondary antibody HRP-conjugated anti-mFC (Jackson Immuno Research, 115-035-164) was added and incubated at 37° C. for 1.5 hours. After washing 4 times with PBST, TMB coloring solution was added, and the plate was incubated at 37° C. for 10-15 minutes before reading on a microplate reader (wavelengths 450 nm and 655 nm).
# As shown, all TIGIT monoclonal antibodies could specifically block the binding between TIGIT and CD155.
molecule,measurement,setting,value
Tiragolumab (antibody),"IFNγ release from PHA-activated PBMCs, increase over the blank",[1],16%
B1,EC50 of stimulating CTLL-2 cell growth (CCK-8),[2],0.0153 mg/L
same,Kd,[3],~8.2 nM
same,binding result,[4],binds
B2,binding result,mouse TIGIT,no binding
same,EC50,[5],0.0184 mg/L
same,EC50,[6],0.144 mg/L
same,EC50,[7],0.0315 mg/L
same,IC50,[8],0.107 mg/L
